Experimental data from patent US20240116985A1, “STAPLED PEPTIDES AND METHODS THEREOF” (priority 2020, published 2024).
Starred links: 1 amine or outer side, 2 acyl side, 3 side chain; linkers in the order of their positions; H or OH if unused. Positions of bridges follow the written chain, without caps; N, C: chain ends. Non-standard residues stand in square brackets, D forms with d. Primed or numbered codes have the meaning given here. PyrS2″ = (S)-3-amino-1-((pent-4-en-1-yloxy)carbonyl)pyrrolidine-3-carboxylic acid (stapling residue), C=CCCCOC(=O)N1CC[C@@](N[*:1])(C(=O)[*:2])C1; B5(4) = 2,2-bis(4-pentenyl)glycine = 2-amino-2-(pent-4-en-1-yl)hept-6-enoic acid (stitching residue), C=CCCCC(CCCC=C)(N[*:1])C(=O)[*:2]; TfeGA = (S)-2-amino-3-((carboxymethyl)(2,2,2-trifluoroethyl)amino)propanoic acid, O=C([C@H](CN(CC(=O)[*:3])CC(F)(F)F)N[*:1])[*:2]; PyrS2 = (S)-3-amino-1-((pent-4-en-1-yloxy)carbonyl)pyrrolidine-3-carboxylic acid, C=CCCCOC(=O)N1CC[C@@](N[*:1])(C(=O)[*:2])C1; MePpzAsn = (S)-2-amino-4-(4-methylpiperazin-1-yl)-4-oxobutanoic acid, CN1CCN(C(=O)C[C@H](N[*:1])C(=O)[*:2])CC1; F2PipNva = (S)-2-amino-5-(4,4-difluoropiperidin-1-yl)pentanoic acid, O=C([C@H](CCCN1CCC(F)(F)CC1)N[*:1])[*:2]; B5(25) = 2-amino-2-(pent-4-en-1-yl)hept-6-enoic acid (stitching residue), C=CCCCC(CCCC=C)(N[*:1])C(=O)[*:2]; MorphAsn = (S)-2-amino-4-morpholino-4-oxobutanoic acid, O=C(C[C@H](N[*:1])C(=O)[*:2])N1CCOCC1; B5(3) = 2,2-bis(4-pentenyl)glycine (stitching residue), C=CCCCC(CCCC=C)(N[*:1])C(=O)[*:2]; B5 = 2-amino-2-(pent-4-en-1-yl)hept-6-enoic acid, C=CCCCC(CCCC=C)(N[*:1])C(=O)[*:2]; Nva(5-morpholino) = N[C@@H](CCCN1CCOCC1)C(=O)O; Phe(3-COOH) = N[C@@H](Cc1cccc(C(=O)O)c1)C(=O)O; 2F3MeF = Cc1cccc(C[C@H](N[*:1])C(=O)[*:2])c1F; Phe(2-Cl) = N[C@@H](Cc1ccccc1Cl)C(=O)O; Bta = N[C@@H](Cc1csc2ccccc12)C(=O)O; Lys(iPr) = CC(C)NCCCC[C@H](N)C(=O)O; αAllylPro = C=CC[C@@]1(C(=O)O)CCCN1; tBuAla = CC(C)(C)C[C@H](N)C(=O)O; 3Thi = N[C@@H](Cc1ccsc1)C(=O)O; R5 = C=CCCC[C@@](C)(N)C(=O)O; hLeu = CC(C)CC[C@H](N)C(=O)O; S5 = C=CCCC[C@](C)(N)C(=O)O; hSer = N[C@@H](CCO)C(=O)O; Nle = CCCC[C@H](N)C(=O)O; Aib = CC(C)(N)C(=O)O

B1: I-958 (peptide)
peptide: Ac-[αAllylPro]D[tBuAla][B5]D[TfeGA]AAF[hSer][PyrS2][3Thi][Bta]S-NH2
modifications: staple 1-4, 4-11; also: earlier-eluting staple isomer composition
B2: I-963 (peptide)
peptide: Ac-[αAllylPro]D[tBuAla][B5(25)]D[TfeGA]AAFF[PyrS2″][3Thi][Bta]S-NH2
modifications: staple 1-4, 4-11; not fully specified
B3: I-957 (peptide)
peptide: Ac-[αAllylPro]D[tBuAla][B5]D[TfeGA]AAFT[PyrS2][3Thi][Bta]S-NH2
modifications: staple 1-4, 4-11; also: later-eluting staple isomer composition
B4: I-962 (peptide)
peptide: Ac-[αAllylPro]D[tBuAla][B5(25)]D[TfeGA]AAFF[PyrS2″][3Thi][Bta]S-NH2
modifications: staple 1-4, 4-11; also: earlier-eluting HPLC staple isomer
B5: I-959 (peptide)
peptide: Ac-[αAllylPro]D[tBuAla][B5]D[TfeGA]AAF[hSer][PyrS2][3Thi][Bta]S-NH2
modifications: staple 1-4, 4-11; also: later-eluting staple isomer composition
B6: I-1618 (peptide)
peptide: Ac-[αAllylPro]D[tBuAla][B5(4)]NTAAFL[PyrS2″][3Thi][Bta]Q-NH2
modifications: staple 1-4, 4-11
B7: I-1608 (peptide)
peptide: Ac-[αAllylPro]D[tBuAla][B5(4)]D[Phe(3-COOH)]AAFL[PyrS2][2F3MeF][Bta][F2PipNva]-NH2
modifications: staple 1-4, 4-11
B8: I-1597 (peptide)
peptide: Ac-[αAllylPro]N[tBuAla][B5(4)]DT[Lys(iPr)]ASL[PyrS2]F[Bta]Q-NH2
modifications: staple 1-4, 4-11
B9: I-1599 (peptide)
peptide: Ac-[αAllylPro]N[tBuAla][B5(4)]DT[Lys(iPr)]AFF[PyrS2]F[Bta]Q-NH2
modifications: staple 1-4, 4-11
B10: I-1620 (peptide)
peptide: Ac-[αAllylPro]D[tBuAla][B5(4)]NTAAF[hLeu][PyrS2″][3Thi][Bta]Q-NH2
modifications: staple 1-4, 4-11
B11: I-1780 (peptide)
peptide: Ac-[αAllylPro]D[tBuAla][S5]DD[Aib]AF[R5]A[3Thi][Bta][S5]A-NH2
modifications: staple (positions not given here); not fully specified; printed as Ac-PL3-Asp-Npg-S5-Asp-Asp-Aib-Ala-Phe-R5-Ala-3Thi-BztA-S5-Ala-NH2; also: staple pairing among PL3 1, S5 4, R5 10, S5 14 not given here
B12: I-1614 (peptide)
peptide: Ac-[αAllylPro]D[tBuAla][B5(3)]D[Phe(3-COOH)]AAFL[PyrS2″][2F3MeF][Bta][MorphAsn]-NH2
modifications: staple 1-4, 4-11
B13: I-1621 (peptide)
peptide: Ac-[αAllylPro]D[tBuAla][B5(4)]NTAAFT[PyrS2″][3Thi][Bta]Q-NH2
modifications: staple 1-4, 4-11
B14: I-1609 (peptide)
peptide: Ac-[αAllylPro]D[tBuAla][B5(3)]D[TfeGA]AAFT[PyrS2][Phe(2-Cl)][Bta][Nva(5-morpholino)]-NH2
modifications: staple 1-4, 4-11
B15: I-1602 (peptide)
peptide: Ac-[αAllylPro]N[tBuAla][B5(4)]DT[Lys(iPr)]AFN[PyrS2]F[Bta]Q-NH2
modifications: staple 1-4, 4-11
B16: I-1607 (peptide)
peptide: Ac-[αAllylPro]D[tBuAla][B5(4)]D[TfeGA]AAFT[PyrS2][Phe(2-Cl)][Bta][F2PipNva]-NH2
modifications: staple 1-4, 4-11
B17: I-1615 (peptide)
peptide: Ac-[αAllylPro]D[tBuAla][B5(3)]D[TfeGA]AAFT[PyrS2″][Phe(2-Cl)][Bta][Lys(iPr)]-NH2
modifications: staple 1-4, 4-11
B18: I-1600 (peptide)
peptide: Ac-[αAllylPro]N[tBuAla][B5(4)]DT[Lys(iPr)]AFW[PyrS2]F[Bta]Q-NH2
modifications: staple 1-4, 4-11
B19: I-1619 (peptide)
peptide: Ac-[αAllylPro]D[tBuAla][B5(4)]NTAAF[Nle][PyrS2″][3Thi][Bta]Q-NH2
modifications: staple 1-4, 4-11
B20: I-1611 (peptide)
peptide: Ac-[αAllylPro]D[tBuAla][B5(3)]D[TfeGA]AAFT[PyrS2″][Phe(2-Cl)][Bta][MePpzAsn]-NH2
modifications: staple 1-4, 4-11
B21: I-1778 (peptide)
peptide: Ac-[αAllylPro]D[tBuAla][S5]DDAAF[R5]A[3Thi][Bta][S5]A-NH2
modifications: staple (positions not given here); not fully specified; printed as Ac-PL3-Asp-Npg-S5-Asp-Asp-Ala-Ala-Phe-R5-Ala-3Thi-BztA-S5-Ala-NH2; also: staple pairing among PL3 1, S5 4, R5 10, S5 14 not given here
B22: I-1601 (peptide)
peptide: Ac-[αAllylPro]N[tBuAla][B5(4)]DT[Lys(iPr)]AFS[PyrS2]F[Bta]Q-NH2
modifications: staple 1-4, 4-11
B23: I-1610 (peptide)
peptide: Ac-[αAllylPro]D[tBuAla][B5(3)]D[Phe(3-COOH)]AAFL[PyrS2][2F3MeF][Bta][Nva(5-morpholino)]-NH2
modifications: staple 1-4, 4-11
B24: I-1613 (peptide)
peptide: Ac-[αAllylPro]D[tBuAla][B5(3)]D[TfeGA]AAFT[PyrS2″][Phe(2-Cl)][Bta][MorphAsn]-NH2
modifications: staple 1-4, 4-11
B25: I-1612 (peptide)
peptide: Ac-[αAllylPro]D[tBuAla][B5(3)]D[Phe(3-COOH)]AAFL[PyrS2″][2F3MeF][Bta][MePpzAsn]-NH2
modifications: staple 1-4, 4-11

target: full-length beta-Catenin (Uniprot ID P35222) (Homo sapiens (Human)) (UniProt P35222); assay: fluorescence polarization competition vs 5FAM-TCF4(10-53) on full-length beta-catenin
Target sequence in this assay (P35222 2-781 limits assumed): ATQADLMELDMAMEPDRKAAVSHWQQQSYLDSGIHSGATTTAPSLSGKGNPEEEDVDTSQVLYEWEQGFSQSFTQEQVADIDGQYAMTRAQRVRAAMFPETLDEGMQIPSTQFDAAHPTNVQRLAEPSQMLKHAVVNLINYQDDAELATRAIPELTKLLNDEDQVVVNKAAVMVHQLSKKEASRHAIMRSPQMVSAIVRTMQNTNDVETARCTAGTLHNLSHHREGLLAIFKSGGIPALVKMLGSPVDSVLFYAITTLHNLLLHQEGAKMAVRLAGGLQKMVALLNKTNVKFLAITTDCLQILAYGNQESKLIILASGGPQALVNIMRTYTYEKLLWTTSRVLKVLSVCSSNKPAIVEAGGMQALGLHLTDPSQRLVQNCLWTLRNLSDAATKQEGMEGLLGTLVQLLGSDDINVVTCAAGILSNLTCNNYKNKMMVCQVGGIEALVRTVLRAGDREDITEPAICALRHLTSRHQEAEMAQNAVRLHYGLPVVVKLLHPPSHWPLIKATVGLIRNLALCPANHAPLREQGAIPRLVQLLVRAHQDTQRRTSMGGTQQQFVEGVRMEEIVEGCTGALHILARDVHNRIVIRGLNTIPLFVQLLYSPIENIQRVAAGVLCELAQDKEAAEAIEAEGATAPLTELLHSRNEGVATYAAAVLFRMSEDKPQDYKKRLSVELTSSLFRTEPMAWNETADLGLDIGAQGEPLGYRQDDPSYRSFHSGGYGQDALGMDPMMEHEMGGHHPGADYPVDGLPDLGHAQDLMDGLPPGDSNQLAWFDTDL

IC50 [nM]	Binder
606	B1
402	B2
1430	B3
407	B4
881	B5

target: full-length beta-Catenin (Uniprot ID P35222) (Homo sapiens (Human)) (UniProt P35222); assay: fluorescence polarization competition against 5FAM-TCF4 10-53 on full-length beta-catenin

IC50 [nM]	Binder
10000	B6
76	B7
6990	B8
1080	B9
2060	B10
4190	B11
15	B12
266	B13
15	B14
362	B15
49	B16
9	B17
4290	B18
1290	B19
10	B20
2080	B21
2020	B22
19	B23
9	B24
10	B25

target: full-length beta-Catenin (Uniprot ID P35222) (Homo sapiens (Human)) (UniProt P35222); assay: fluorescence polarization competition; 10 nM full-length beta-catenin + 10 nM 5FAM-TCF4(10-53) probe
Target sequence in this assay (P35222 whole entry): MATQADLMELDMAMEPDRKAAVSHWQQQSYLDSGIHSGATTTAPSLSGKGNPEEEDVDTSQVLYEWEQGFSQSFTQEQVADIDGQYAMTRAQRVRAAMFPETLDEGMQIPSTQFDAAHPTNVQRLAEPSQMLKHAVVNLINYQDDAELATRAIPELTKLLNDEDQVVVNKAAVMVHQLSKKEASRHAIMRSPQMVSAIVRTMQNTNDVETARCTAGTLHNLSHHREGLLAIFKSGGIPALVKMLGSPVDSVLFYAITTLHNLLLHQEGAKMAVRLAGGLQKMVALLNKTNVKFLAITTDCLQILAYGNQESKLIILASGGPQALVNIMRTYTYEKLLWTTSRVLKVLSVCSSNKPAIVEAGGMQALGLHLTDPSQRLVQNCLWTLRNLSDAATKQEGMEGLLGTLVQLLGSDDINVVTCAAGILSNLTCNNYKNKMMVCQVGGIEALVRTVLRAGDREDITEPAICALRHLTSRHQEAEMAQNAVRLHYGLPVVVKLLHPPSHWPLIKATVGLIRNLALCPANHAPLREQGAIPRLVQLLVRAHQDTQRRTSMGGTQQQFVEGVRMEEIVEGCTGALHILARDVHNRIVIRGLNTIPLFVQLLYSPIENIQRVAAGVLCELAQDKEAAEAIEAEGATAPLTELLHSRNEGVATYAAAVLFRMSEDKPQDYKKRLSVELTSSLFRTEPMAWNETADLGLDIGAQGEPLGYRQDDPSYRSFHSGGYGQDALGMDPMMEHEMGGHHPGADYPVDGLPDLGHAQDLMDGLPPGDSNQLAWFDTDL

EC50 [nM]	Binder
606	B1
402	B2
1430	B3
407	B4
881	B5
